From PMC2174365 (The Journal of Cell Biology, 2000)

Columns and labels:
[1] = target: microtubules (taxol-stabilized; polymer of alpha- and beta-tubulin); assay: cell-based or functional assay
[2] = target: the molecule itself; assay: cross-linking

B1: Cys344 Cys-light K560-GFP (neck coiled-coil mutant Tyr344Cys) (domain or fragment, human, UniProt P33176 1-560, looked up)
chain: MADLAESNIKVMCRFRPLNESEVNRGDKYIAKFQGEDTVVIASKPYAFDRVFQSSTSQEQVYNDAAKKIVKDVLEGYNGTIFAYGQTSSGKTHTMEGKLHDPEGMGIIPRIVQDIFNYIYSMDENLEFHIKVSYFEIYLDKIRDLLDVSKTNLSVHEDKNRVPYVKGATERFVSSPDEVMDTIDEGKSNRHVAVTNMNEHSSRSHSIFLINVKQENTQTEQKLSGKLYLVDLAGSEKVSKTGAEGAVLDEAKNINKSLSALGNVISALAEGSTYVPYRDSKMTRILQDSLGGNARTTIVICCSPSSYNESETKSTLLFGQRAKTIKNTVSVNVELTAEQWKKKCEKEKEKNKILRNTIQWLENELNRWRNGETVPIDEQFDKEKANLEAFTVDKDITLTNDKPATAIGVIGNFTDAERRKAEEEIAKLYKQLDDKDEEINQQSQLVEKLKTQMLDQEELLASTRRDQDNMQAELNRLQAENDASKEEVKEVLQALEELAVNYDQKSQEVEDKTKEYELLSDELNQKSATLASIDAELQKLKEMTNHQKKRAAEMMASLLK
- Km(MT) of the microtubule-stimulated ATPase, with 200 μM DTNB [1]: 1.24 μM tubulin
- Km(MT) of the microtubule-stimulated ATPase, without DTNB [1]: 0.84 μM tubulin
- stoichiometry N [2]: 2

B2: Cys337 Cys-light K560-GFP (neck coiled-coil mutant Ala337Cys) (domain or fragment, human, UniProt P33176 1-560, looked up)
chain: MADLAESNIKVMCRFRPLNESEVNRGDKYIAKFQGEDTVVIASKPYAFDRVFQSSTSQEQVYNDAAKKIVKDVLEGYNGTIFAYGQTSSGKTHTMEGKLHDPEGMGIIPRIVQDIFNYIYSMDENLEFHIKVSYFEIYLDKIRDLLDVSKTNLSVHEDKNRVPYVKGATERFVSSPDEVMDTIDEGKSNRHVAVTNMNEHSSRSHSIFLINVKQENTQTEQKLSGKLYLVDLAGSEKVSKTGAEGAVLDEAKNINKSLSALGNVISALAEGSTYVPYRDSKMTRILQDSLGGNARTTIVICCSPSSYNESETKSTLLFGQRAKTIKNTVSVNVELTCEQWKKKYEKEKEKNKILRNTIQWLENELNRWRNGETVPIDEQFDKEKANLEAFTVDKDITLTNDKPATAIGVIGNFTDAERRKAEEEIAKLYKQLDDKDEEINQQSQLVEKLKTQMLDQEELLASTRRDQDNMQAELNRLQAENDASKEEVKEVLQALEELAVNYDQKSQEVEDKTKEYELLSDELNQKSATLASIDAELQKLKEMTNHQKKRAAEMMASLLK
- Km(MT) of the microtubule-stimulated ATPase, with 200 μM DTNB [1]: 1.59 μM tubulin
- Km(MT) of the microtubule-stimulated ATPase, without DTNB [1]: 1.2 μM tubulin
- stoichiometry N [2]: 2

B3: Cys337/Cys344 Cys-light K560-GFP (neck coiled-coil double mutant Ala337Cys/Tyr344Cys) (domain or fragment, human, UniProt P33176 1-560, looked up)
chain: MADLAESNIKVMCRFRPLNESEVNRGDKYIAKFQGEDTVVIASKPYAFDRVFQSSTSQEQVYNDAAKKIVKDVLEGYNGTIFAYGQTSSGKTHTMEGKLHDPEGMGIIPRIVQDIFNYIYSMDENLEFHIKVSYFEIYLDKIRDLLDVSKTNLSVHEDKNRVPYVKGATERFVSSPDEVMDTIDEGKSNRHVAVTNMNEHSSRSHSIFLINVKQENTQTEQKLSGKLYLVDLAGSEKVSKTGAEGAVLDEAKNINKSLSALGNVISALAEGSTYVPYRDSKMTRILQDSLGGNARTTIVICCSPSSYNESETKSTLLFGQRAKTIKNTVSVNVELTCEQWKKKCEKEKEKNKILRNTIQWLENELNRWRNGETVPIDEQFDKEKANLEAFTVDKDITLTNDKPATAIGVIGNFTDAERRKAEEEIAKLYKQLDDKDEEINQQSQLVEKLKTQMLDQEELLASTRRDQDNMQAELNRLQAENDASKEEVKEVLQALEELAVNYDQKSQEVEDKTKEYELLSDELNQKSATLASIDAELQKLKEMTNHQKKRAAEMMASLLK
- Km(MT) of the microtubule-stimulated ATPase, with 200 μM DTNB [1]: 1.51 μM tubulin
- Km(MT) of the microtubule-stimulated ATPase, without DTNB [1]: 1.19 μM tubulin
